In patent publication US20150368338A1 (Janssen / Centocor, published 2015):
Values belong to the binder of their own block, whether it stands above or below them.

Assays:
IFN-α1 = molecular target: T1, IFN-α1 (human, UniProt A0A087WWS6 25-190); assay: ProteOn
T1 construct: also called Ala114 IFN-αD

IFN-αG [1] = molecular target: T2, IFN-αG (human, UniProt P01569 24-189); assay: ProteOn
T2 construct: also called IFN-α5

IFN-αH2 [2] = molecular target: T3, IFN-αH2 (human, UniProt P01570 24-189); assay: ProteOn
T3 construct: also called IFN-α14

IFN-αJ1 [3] = molecular target: T4, IFN-αJ1 (human, UniProt P01567 24-189); assay: ProteOn
T4 construct: also called IFN-α7

IFN-αK [4] = molecular target: T5, IFN-αK (human, UniProt P05013 24-189); assay: ProteOn
T5 construct: also called IFN-α6

IFN-αWA [5] = molecular target: T6, IFN-αWA (human, UniProt P05015 24-189); assay: ProteOn
T6 construct: also called IFN-α16

IFN-α4a [6] = molecular target: T7, IFN-α4a (human, UniProt P05014 24-189); assay: ProteOn
T7 construct: also called IFN-αM1

IFN-β = IFN-β (human, UniProt P01574 22-187); assay: ProteOn
Chimp IFN-ω = molecular target: T8, Chimp IFN-ω (chimpanzee, UniProt P05000 24-195 (human entry)); assay: ProteOn
T8 construct: also called chimpanzee IFN-ω

Cyno IFN-ω = molecular target: T9, Cyno IFN-ω (cynomolgus, UniProt P05000 24-195 (human entry)); assay: ProteOn
T9 construct: also called cynomolgus IFN-ω
T9 chain: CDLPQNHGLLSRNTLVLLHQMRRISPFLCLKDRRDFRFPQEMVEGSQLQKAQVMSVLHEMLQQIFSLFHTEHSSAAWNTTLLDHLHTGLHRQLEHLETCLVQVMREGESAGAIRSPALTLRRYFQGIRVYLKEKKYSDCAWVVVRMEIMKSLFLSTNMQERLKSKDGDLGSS

IFN-αC [7] = molecular target: T10, IFN-αC (human, UniProt P01566 24-189); assay: ProteOn
T10 construct: also called IFN-α10

IFN-αD = molecular target: T11, IFN-αD (human, UniProt A0A087WWS6 25-190); assay: ProteOn
T11 construct: also called Val114 IFN-α1
T11 chain: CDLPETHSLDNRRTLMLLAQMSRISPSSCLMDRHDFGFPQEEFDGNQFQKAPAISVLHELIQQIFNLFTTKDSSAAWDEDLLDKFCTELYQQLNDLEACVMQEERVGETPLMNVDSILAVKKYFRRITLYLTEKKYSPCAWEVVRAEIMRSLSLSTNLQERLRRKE

IFN-αF [8] = molecular target: T12, IFN-αF (human, UniProt P01568 24-189); assay: ProteOn
T12 construct: also called IFN-α21
T12 chain: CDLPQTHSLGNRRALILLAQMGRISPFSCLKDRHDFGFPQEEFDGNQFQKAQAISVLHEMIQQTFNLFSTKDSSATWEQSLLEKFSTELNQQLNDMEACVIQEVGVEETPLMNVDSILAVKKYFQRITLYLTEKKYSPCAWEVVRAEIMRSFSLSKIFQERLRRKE

IFN-αG [9] = molecular target: T2, IFN-αG; assay: cell-based or functional assay
IFN-αH2 [10] = molecular target: T3, IFN-αH2; assay: cell-based or functional assay
IFN-αJ1 [11] = molecular target: T4, IFN-αJ1; assay: cell-based or functional assay
IFN-αK [12] = molecular target: T5, IFN-αK; assay: cell-based or functional assay
IFN-αWA [13] = molecular target: T6, IFN-αWA; assay: cell-based or functional assay
IFN-α4a [14] = molecular target: T7, IFN-α4a; assay: cell-based or functional assay
human IFN-ω = human IFN-ω (human, UniProt P05000 24-195); assay: cell-based or functional assay
IFN-αC [15] = molecular target: T10, IFN-αC; assay: cell-based or functional assay
IFN-αF [16] = molecular target: T12, IFN-αF; assay: cell-based or functional assay
[17] = molecular target: T13, Human IFN-ω T80E variant with a C-terminal 6xHis-Tag (human, UniProt P05000 24-195); assay: complex purified by size exclusion and crystallized, X-ray structure
[18] = molecular target: T13, Human IFN-ω T80E variant with a …; assay: complex crystallized, X-ray structure

binding result (IFN-α1): no binding
Kd (IFN-αG [1]): 1.11 nM
Kd (IFN-αH2 [2]): 0.179 nM
Kd (IFN-αJ1 [3]): 10.8 nM
Kd (IFN-αK [4]): 0.245 nM
Kd (IFN-αWA [5]): 3.18 nM
Kd (IFN-α4a [6]): 5.39 nM
binding result (IFN-β): no binding
Kd (Chimp IFN-ω): 1.08 nM
Kd (Cyno IFN-ω): 0.887 nM
Kd (IFN-αC [7]): 1.67 nM
binding result (IFN-αD): no binding
Kd (IFN-αF [8]): 5.31 nM
IC50 (nM), ISRE reporter gene assay (IFN-αG [9]): 12.9 nM
IC50 (nM), ISRE reporter gene assay (IFN-αH2 [10]): 9.6 nM
IC50 (nM), ISRE reporter gene assay (IFN-αJ1 [11]): 35.7 nM
IC50 (nM), ISRE reporter gene assay (IFN-αK [12]): 7.3 nM
IC50 (nM), ISRE reporter gene assay (IFN-αWA [13]): 74.2 nM
IC50 (nM), ISRE reporter gene assay (IFN-α4a [14]): 32.8 nM
IC50 (nM), ISRE reporter gene assay (human IFN-ω): 43.9 nM
IC50 (nM), ISRE reporter gene assay (IFN-αC [15]): 53.9 nM
IC50 (nM), ISRE reporter gene assay (IFN-αF [16]): 16 nM
B1: IFWM371 (antibody, IgG1, V domains shown)
VH: EVQLVQSGAEVKKPGESLKISCKGSGYSFTSYWIGWVRQMPGKGLEWMGIIDPSDSDTRYSPSFQGQVTISADKSISTAYLQWSSLKASDTAMYYCARHPGLNWAPDFDYWGQGTLVTVSS
VL: not shown
notes: Fab cloned into IgG1/kappa background; also called IFWB351; parental mAb

binding result [17]: binds
B2: Fab of IFWM3525 (Fab, V domains shown)
VH: B1 VH
VL: DIQMTQSPSSLSASVGDRVTITCRASQSIDNSYLNWYQQKPGKAPKLLIYGASSLQSGVPSRFSGSGSGTDFTLTISSLQPEDFATYYCQQGYDFPLTFGQGTKVEIK
notes: Fab for crystallography with C-terminal 6xHis tag; also called Fab IFWM3525

binding result [18]: binds
B3: Fab IFWM3421 (Fab, V domains shown)
VH: B1 VH
VL: DIQMTQSPSSLSASVGDRVTITCRASQSIDGFLNWYQQKPGKAPKLLIYFASSLQSGVPSRFSGSGSGTDFTLTISSLQPEDFATYYCQQSYDLPITFGQGTKVEIK
notes: also called Fab3421; FabM3421
